Measured values reported in patent US20250215097A1 (BEIJING TIANNUOJIANCHENG PHARMA TECH, published 2025).
One block for each binder: values may come before it.

Experiments:
cynomolgus monkey CCR8 [1] = target: T1, cynomolgus monkey CCR8 (cynomolgus monkey, UniProt O97665 1-356 (rhesus entry)); assay: flow cytometry on CHO-cynoCCR8 cells
T1 construct: Full-length, stably expressed on CHO cells; also called cynoCCR8; CHO-cynoCCR8
Protocol: (§1) 5×10⁴ CHO-hCCR8 or CHO-cynoCCR8 cells were added per well in a 96-well U-shaped plate and centrifuged to discard the supernatant. 100 μL of a gradiently diluted anti-CCR8 chimeric antibody was added per well and the mixture was incubated on ice for 60 minutes. After the unbound primary antibody was washed away, 50 μL, of a secondary antibody AlexaFluro647 anti-human IgG (Jackson Immuno Research #109-606-170) was added per well and the mixture was incubated on ice for 30 minutes. After the washing, 50 μL of 5 μg/mL of a Pi/BSA solution was added to each well and the mixture was incubated on ice for 5 minutes. Then excess secondary antibody was washed away with 0.5% BSA, the cells were resuspended by adding a PBS solution, and binding of the antibody to the cells was detected using a flow cytometer (BD Celesta). The fluorescence value of a PI-negative cell population was analyzed. Cell-binding curves were fitted by Graphpad Prism 7.

FcγRIIIAF158 = target: T2, FcγRIIIAF158 (UniProt P08637 17-208); assay: SPR (Biacore T200), antibody captured by anti-human IgG F(ab')2 on CM5, FcγRIIIA as analyte; FcγRIIIAF158
T2 construct: F158 allotype; also called FcγRIIIA158F
Protocol: (§2) The affinities of the Fc function-enhanced humanized CCR8 antibodies to FcγRIIIAV158 and FcγRIIIAF158 were detected by using a surface plasmon resonance technology (SPR/Biacore T200). A coupling reagent Amine Coupling Kit (GE Healthcare BR-1000-50) was used to couple Goat Anti-Human IgG F(ab′)2 to the surface of a CM5 chip. h87D8 H2K4 e5 or h87D8 H2K4 was captured through high-affinity binding with the antibodies and then gradiently diluted FcγRIIIAV158 or FcγRIIIAF158 was injected in sequence. The binding time was set to be 120 seconds, the dissociation time was set to be 200 seconds, regeneration was performed for 30 seconds by 10 mM Glycine-HCl with the pH value of 1.75, and the flow rate was set to be […]. The measured data were fitted to obtain an equilibrium dissociation constant. The affinities of h87D8 H2K4 e5 or h87D8 H2K4 to FcγRIIIAV158 and FcγRIIIAF158 were respectively measured. […] The binding of h87D8 H2K4 e5 to FcγRIIIAV158 and FcγRIIIAF158 was stronger than that of h87D8 H2K4.

FcγRIIIAV158 = target: T3, FcγRIIIAV158 (UniProt P08637 17-208); assay: SPR (Biacore T200), antibody captured by anti-human IgG F(ab')2 on CM5, FcγRIIIA as analyte; FcγRIIIAV158
T3 construct: V158 allotype; also called FcγRIIIA158V
Protocol: as §2

human CCR8 [2] = target: T4, human CCR8 (human, UniProt P51685 1-355); assay: flow cytometry on CHO-hCCR8 cells
T4 construct: Full-length human CCR8 stably expressed on CHO or HEK293 cells; also endogenous on HuT78 cells in one ADCC assay; also called hCCR8; CHO-hCCR8
Protocol: as §1

human CCR4 = target: T5, human CCR4 (human, UniProt P51679 1-360); assay: flow cytometry of purified Fab on cells stably expressing human CCR4
T5 construct: also called hCCR4; human CCR4+ cells
T5 sequence: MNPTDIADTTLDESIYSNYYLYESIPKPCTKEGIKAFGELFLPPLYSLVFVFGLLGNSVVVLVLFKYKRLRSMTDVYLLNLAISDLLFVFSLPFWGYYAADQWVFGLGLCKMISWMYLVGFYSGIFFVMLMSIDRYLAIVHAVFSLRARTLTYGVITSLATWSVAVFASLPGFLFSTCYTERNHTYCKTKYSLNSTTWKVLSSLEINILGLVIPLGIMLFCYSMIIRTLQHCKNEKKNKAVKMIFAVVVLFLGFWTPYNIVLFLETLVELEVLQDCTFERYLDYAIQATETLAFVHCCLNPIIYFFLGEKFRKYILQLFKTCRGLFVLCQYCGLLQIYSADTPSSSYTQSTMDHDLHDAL
Protocol: (§3) The positive clones obtained in example 1 were re-induced to express and purified to obtain a Fab antibody. The binding to cells stably expressing human CCR8, cynomolgus monkey CCR8 and human CCR4 was tested respectively, 5×10⁴ test cells were added to each well of a 96-well U-shaped plate and centrifuged to discard the supernatant, 100 μL/well of the purified Fab antibody was added and the mixture was incubated on ice for 60 minutes. After washing away the unbound primary antibody, 50 μL of a secondary antibody solution (Anti-human IgG, F(ab′)2-AF647, Jackson Immuno Research) was added to each well and the mixture was incubated on ice for 30 minutes. After washing, 50 μL of a PI/BSA solution at 5 μg/mL was added to each well and the mixture was incubated on ice for 5 minutes. Then excess secondary antibody was washed away with 0.5% BSA, the cells were resuspended by adding a PBS solution, and binding of the antibody to the cells was detected using a flow cytometer (Intellicyte iQue).

cynomolgus monkey CCR8 [3] = target: T1, cynomolgus monkey CCR8; assay: flow cytometry of purified Fab on cells stably expressing cynomolgus monkey CCR8
Protocol: as §3

human CCR8 [4] = target: T4, human CCR8; assay: flow cytometry on CHO-hCCR8 cells, parental chimeric antibody
Protocol: as §1

human CCR8 [5] = target: T4, human CCR8; assay: cell-based or functional assay
cynomolgus monkey CCR8 [6] = target: T1, cynomolgus monkey CCR8; assay: flow cytometry, chimeric IgG on CHO-cynoCCR8 cells
Protocol: (§4) 5×10⁴ CHO-hCCR8 or CHO-cynoCCR8 cells were added per well in a 96-well U-shaped plate and centrifuged to discard the supernatant, 100 μL of a gradiently diluted anti-CCR8 chimeric antibody or anti-KLH isotype control antibody was added per well and the mixture was incubated on ice for 60 minutes. After the unbound primary antibody was washed away, 50 μL of a secondary antibody AlexaFluro647 anti-human IgG (Jackson Immuno Research #109-606-170) was added per well and the mixture was incubated on ice for 30 minutes. After the washing, 50 μL of 5 μg/mL of a PI/BSA solution was added to each well and the mixture was incubated on ice for 5 minutes. Then excess secondary antibody was washed away with 0.5% BSA, the cells were resuspended by adding a PBS solution, and binding of the antibody to the cells was detected using a flow cytometer (Intellicyte iQue). The fluorescence value of a Pi-negative cell population was analyzed. Cell-binding curves were fitted by Graphpad Prism 7 (FIG. 2). The chimeric antibodies of 87D8, 102H5, 109F6, 110G2, 113B3, 139A9, 144D2, etc. all bound with high affinities to human CCR8+ cells CHO-hCCR8 and cynomolgus monkey CCR8+ cells CHO-cynoCCR8.

cynomolgus monkey CCR8 [7] = target: T1, cynomolgus monkey CCR8; assay: flow cytometry on CHO-cynoCCR8 cells, parental chimeric antibody
Protocol: as §1

human CCR8 [8] = target: T4, human CCR8; assay: flow cytometry, chimeric IgG on CHO-hCCR8 cells
Protocol: as §4

human CCR8 [9] = target: T4, human CCR8; assay: cell-based or functional assay; remark: listed apart in the source
human CCR8 [10] = target: T4, human CCR8; assay: cell-based or functional assay; remark: listed apart in the source

T4 sequence (P51685 whole entry): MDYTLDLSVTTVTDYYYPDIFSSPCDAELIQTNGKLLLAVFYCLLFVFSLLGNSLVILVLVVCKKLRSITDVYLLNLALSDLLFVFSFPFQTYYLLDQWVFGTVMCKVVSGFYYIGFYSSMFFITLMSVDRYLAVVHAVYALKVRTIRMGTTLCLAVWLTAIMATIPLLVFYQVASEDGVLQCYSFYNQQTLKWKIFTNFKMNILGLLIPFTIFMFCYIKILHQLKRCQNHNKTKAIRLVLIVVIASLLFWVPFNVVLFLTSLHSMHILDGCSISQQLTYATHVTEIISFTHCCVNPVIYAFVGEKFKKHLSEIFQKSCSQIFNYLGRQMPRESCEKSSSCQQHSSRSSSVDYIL
T1 sequence (O97665 other isoform, or with tags, fused parts or gaps): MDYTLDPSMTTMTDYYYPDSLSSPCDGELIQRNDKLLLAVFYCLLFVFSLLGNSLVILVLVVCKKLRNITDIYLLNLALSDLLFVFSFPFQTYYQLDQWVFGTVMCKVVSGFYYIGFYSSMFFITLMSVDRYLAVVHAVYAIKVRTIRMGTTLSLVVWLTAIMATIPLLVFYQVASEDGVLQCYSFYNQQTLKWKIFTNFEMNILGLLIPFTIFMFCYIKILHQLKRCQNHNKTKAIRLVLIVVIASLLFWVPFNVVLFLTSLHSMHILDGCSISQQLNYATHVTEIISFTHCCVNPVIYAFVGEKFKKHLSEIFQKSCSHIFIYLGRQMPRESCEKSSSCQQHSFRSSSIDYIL
T2 sequence (P08637 17-208 limits assumed): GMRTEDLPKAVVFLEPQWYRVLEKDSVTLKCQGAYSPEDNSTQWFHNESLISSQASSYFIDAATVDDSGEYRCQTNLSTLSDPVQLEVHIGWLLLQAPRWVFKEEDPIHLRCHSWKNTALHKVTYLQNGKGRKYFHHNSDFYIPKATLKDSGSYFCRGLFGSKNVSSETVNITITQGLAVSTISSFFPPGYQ
T3 sequence (P08637 17-208 F176V limits assumed): as the sequence (P08637 17-208 limits assumed) above, with F160V counted along it

EC50 (cynomolgus monkey CCR8 [1]): 2.28 nM
Kd (FcγRIIIAF158): 1300 nM
Kd (FcγRIIIAV158): 861 nM
EC50 (human CCR8 [2]): 0.68 nM
B1: h87D8 H2K4 hIgG1 (antibody)
heavy: not shown
light: DIVMTQSPLSLPVTPGEPASISCRSSKSLLHSNYNTYLYWFLQKPGQSPQLLIYRTSNLASGVPDRFSGSGSGTDFTLKISRVEAEDVGVYYCMQHLEYPLTFGQGTKLEIKRTVAAPSVFIFPPSDEQLKSGTASVVCLLNNFYPREAKVQWKVDNALQSGNSQESVTEQDSKDSTYSLSSTLTLSKADYEKHKVYACEVTHQGLSSPVTKSFNRGEC
notes: Humanized, wild-type human IgG1 Fc; also called h87D8 VHv2+h87D8 VKv4; copies: 2 + 2

binding result (human CCR4): no binding
binding result (cynomolgus monkey CCR8 [3]): binds
B2: 29A8 Fab antibody (Fab, V domains shown)
VH: EVQLVESGGGLVQPKGSLKLSCAASGFTFNAFAMNWVRQAPGKGLEWVARIRSKSNNYATYYADSVIDRFTISRDDSQSMLYLQMNNLKTEDTAMYYCVRGKEAGAYYAMDYWGQGTSVTVSS
VL: DIVMTQAAPSVPVTPGESVSISCRSSKSLLHSNGNTYLYWFLQRPGQSPQLLIYRMSNLASGVPDRFSGSGSGTAFTLRISKVEAEDVGVYYCMQHLEYPFTFGGGTKLEIK
notes: detected with anti-human IgG F(ab')2; also called clone 29A8

EC50 (human CCR8 [4]): 0.88 nM
ADCC EC50 (nM), NK92-CD16A effectors, HEK293-hCCR8 targets, LDH release (human CCR8 [5]): 0.07 nM
EC50 (cynomolgus monkey CCR8 [6]): 2.75 nM
EC50 (cynomolgus monkey CCR8 [7]): 1.32 nM
EC50 (human CCR8 [8]): 1.08 nM
B3: 144D2 anti-CCR8 chimeric antibody (antibody, V domains shown)
VH: EVQLVESGGGLVQPKGSLKLSCAASGFTFNAFAMNWVRQAPGKGLEWVARIRSKSNNYATYYADSVIDRFTISRDDSQSMLYLQMNNLKTEDTAMYYCVRGKEAGAYYAMDYWGQGTSVTVSS
VL: DIVMTQAAPSVPVTPGESVSISCRSSKSLLHSNGNTYLYWFLQRPGQSPQLLIYRMSNLASGVPDRFSGSGSGTAFTLRISRVEAEDVGVYYCMQHLEYPLTFGAGTKLEIK

ADCC EC50 (nM), PBMC FcγRIIIA158F/F effectors, HEK293-hCCR8 targets (human CCR8 [9]): 0.08 nM
ADCC EC50 (nM), PBMC FcγRIIIA158V/V effectors, HEK293-hCCR8 targets (human CCR8 [9]): 0.05 nM
ADCC maximal lysis rate, PBMC FcγRIIIA158F/F effectors, HEK293-hCCR8 targets (human CCR8 [9]): 68%
ADCC maximal lysis rate, PBMC FcγRIIIA158V/V effectors, HEK293-hCCR8 targets (human CCR8 [9]): 76%
EC50 (human CCR8 [4]): 0.57 nM
ADCC EC50 (nM), NK92-CD16A effectors, HEK293-hCCR8 targets, LDH release (human CCR8 [5]): 0.1 nM
ADCC maximal lysis rate, NK92-CD16A effectors, HEK293-hCCR8 targets (human CCR8 [10]): 33%
EC50 (cynomolgus monkey CCR8 [6]): 1.92 nM
EC50 (cynomolgus monkey CCR8 [7]): 1.78 nM
EC50 (human CCR8 [8]): 0.71 nM
B4: 87D8 anti-CCR8 chimeric antibody (antibody, V domains shown)
VH: EVQLVESGGGLVQPKGSLRLSCAASGFTFNTYAMNWVRQAPGKGLEWIARIRSKSNNYATYYADSVKDRFTISRDDSQSMLYLQMNNLKTEDTAMYYCVRGKEAGAYYAMDYWGQGTSVTVSS
VL: DIVMTQAAPSVPVTPGESVSISCRSSKSLLHSNGNTYLYWFLQRPGQSPQLLIYRMSNLASGVPDRFSGSGSGTAFTLRISRVEAEDVGVYYCMQHLEYPLTFGAGTKLELK

binding result (human CCR4): no binding
binding result (cynomolgus monkey CCR8 [3]): binds
B5: 30A7 Fab antibody (Fab, V domains shown)
VH: QVQLVESGGGLVQPKGSLKLSCAASGFTFNTYAMNWVRQAPGKGLEWVARIRSKSNYYATYYADSVKDRFTISRDDSQSMLYLQMNNLKTEDTAMYYCLRGKEAGAYYAMDYWGQGTSVTVSS
VL: DIVMTQAAPSVPVTPGESVSISCRSSKSLLHSNGNTYLYWFLQRPGQSPQLLIYRMSNLASGVPDRFSGSGSGTAFTLRISRVEAEDVGVYYCMQHLEYPFTFGAGTKLEIK
notes: also called clone 30A7

EC50 (cynomolgus monkey CCR8 [1]): 1.19 nM
ADCC half-maximal effective concentration (EC50), NK92-CD16A effectors, HEK293-hCCR8 targets (human CCR8 [10]): 0.01 nM
EC50 (human CCR8 [2]): 0.53 nM
B6: h87D8 H1K1 (antibody, human IgG1, V domains shown)
VH: EVQLVESGGGLVQPGGSLRLSCAASGFTFNTYAMNWVRQAPGKGLEWVARIRSKSNNYATYYADSVKGRFTISRDDSQSSLYLQMNSLRAEDTAVYYCVRGKEAGAYYAMDYWGQGTLVTVSS
VL: DIVMTQSPLSLPVTPGEPASISCRSSKSLLHSNGNTYLYWFLQKPGQSPQLLIYRMSNLASGVPDRFSGSGSGTDFTLKISRVEAEDVGVYYCMQHLEYPLTFGQGTKLEIK
notes: Humanized; also called h87D8 VHv1+h87D8 VKv1

EC50 (cynomolgus monkey CCR8 [1]): 1.16 nM
ADCC half-maximal effective concentration (EC50), NK92-CD16A effectors, HEK293-hCCR8 targets (human CCR8 [10]): 0.02 nM
EC50 (human CCR8 [2]): 0.89 nM
B7: h144D2 H1K1 (antibody, human IgG1, V domains shown)
VH: EVQLVESGGGLVQPGGSLRLSCAASGFTFNAFAMNWVRQAPGKGLEWVARIRSKSNNYATYYADSVKGRFTISRDDSQSSLYLQMNSLRAEDTAVYYCVRGKEAGAYYAMDYWGQGTLVTVSS
VL: DIVMTQSPLSLPVTPGEPASISCRSSKSLLHSNGNTYLYWFLQKPGQSPQLLIYRMSNLASGVPDRFSGSGSGTDFTLKISRVEAEDVGVYYCMQHLEYPLTFGQGTKLEIK
notes: Humanized; also called h144D2 VHv1+h87D8 VKv1
